“Also recorded” adds a separate entry of the source. Positions of bridges follow the written chain, without caps; N, C: chain ends. Residues, ends and D or L forms follow the SMILES beside them. No end group written: not given here.
Assays:
trypsin = trypsin (Sus scrofa, UniProt P00761); experiment: Trypsin digestion resistance of soluble peptide, RP-HPLC; type: in vitro ADME, porcine; design: purchased Sigma Aldrich 6567; settings: HPLC; for resistance to trypsin digestion (in words): 500 U/ml trypsin (50 U per reaction), 30 minutes at 37.5° C.; for resistance to trypsin, Example 7 conditions (in words): 50 U trypsin (500 U/ml), 30 min at room temperature, with or without 10 mM DTT
trypsin, sequence (P00761 9-231): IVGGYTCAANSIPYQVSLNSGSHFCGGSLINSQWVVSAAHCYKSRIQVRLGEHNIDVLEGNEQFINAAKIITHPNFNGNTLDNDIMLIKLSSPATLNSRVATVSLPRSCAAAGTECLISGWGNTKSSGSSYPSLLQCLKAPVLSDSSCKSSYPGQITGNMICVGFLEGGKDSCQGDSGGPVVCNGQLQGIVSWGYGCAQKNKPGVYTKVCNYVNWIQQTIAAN
In short: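 Read-out was RP-HPLC (C-18, water/acetonitrile with 0.1% TFA, 5-45% over 10 min) of peptide left after trypsin treatment. Digest: 12.5 μg peptide, 500 U/ml porcine trypsin, PBS, 37.5° C for 30 min, stopped by soybean trypsin inhibitor; samples then reduced (10 mM DTT) or left non-reduced.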

pepsin [1] = target: T1, pepsin (Sus scrofa, UniProt P00791); experiment: Stability in SPTD (simulated gastric fluid, pepsin, Tris and DTT), RP-HPLC; type: in vitro ADME; settings: SGF pH 1.05 with 500 U/ml pepsin, 100 mM Tris, 10 mM DTT
T1 sequence (P00791 60-385): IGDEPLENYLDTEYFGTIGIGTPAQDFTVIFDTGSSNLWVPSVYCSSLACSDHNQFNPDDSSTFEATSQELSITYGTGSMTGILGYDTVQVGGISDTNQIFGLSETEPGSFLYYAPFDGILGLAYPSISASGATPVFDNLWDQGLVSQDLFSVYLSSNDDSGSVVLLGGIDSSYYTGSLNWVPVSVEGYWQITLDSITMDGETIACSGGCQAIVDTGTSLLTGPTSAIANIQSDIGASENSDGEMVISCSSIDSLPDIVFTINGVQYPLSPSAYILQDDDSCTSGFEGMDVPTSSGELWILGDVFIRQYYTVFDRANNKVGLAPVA
Experimental: (§1) Peptides were first suspended in 500 ul of ddH2O to a stock concentration of 2 mg/ml. Reactions were prepared by adding 12.5 ug of peptide from the stock solution to a 10 mM solution of DTT in PBS and allowed to incubate at room temperature for 30 minutes. Other reactions were prepared with 12.5 μg peptide with or without 500 U/ml pepsin in simulated gastric fluid (SGF; pH 1.05; […] sodium chloride in 0.7% (v/v) hydrochloric acid) and were incubated for 30 minutes at 37.5° C. Some reactions were quenched with a final concentration of 100 mM Tris base and 10 mM dithiothreitol (DTT). Some reactions were performed in all of the above components, including simulated gastric fluid, pepsin, Tris, and DTT (referred to as SPTD). Reversed phase HPLC (RP-HPLC) was run on samples using an Agilent 1260 HPLC equipped with a C-18 Poroshell 120B column. Sample were analyzed by a gradient method with a mobile phase of Solvent A (water with 0.1% TFA) and Solvent B (acetonitrile with 0.1% TFA). Solvent B was ramped up from 5%-45% of the mobile phase over a period of 10 minutes. Peptides were detected at an absorbance of 214 nm and 280 nm.

[2] = Stability in simulated gastric fluid (SGF, pH 1.05), RP-HPLC; type: physicochemical; settings: HPLC vs non-reduced peptide
Experimental: as §1
This example illustrates peptide stability in biological conditions including in the presence of reducing agents, proteases, oxidative conditions, acidic conditions, and simulated gastric fluids. […] Various peptides were suspended in 500 μl of ddH2O at a stock concentration of 2 mg/ml. This was then diluted in accord with the reaction conditions to prevent adverse buffering effects. Reactions were prepared with 12.5 μg peptide dissolved in solution and, in some samples, additionally suspended in a 10 mM solution of DTT, simulated gastric fluid (pH 1.05; […] sodium chloride in 0.7% (v/v) hydrochloric acid), 500 U pepsin (5000 U/ml pepsin), 50 U trypsin (500 U/ml trypsin) with 1 mg/ml inhibitor in PBS, or a combination of any of these conditions. All protease reactions were incubated for 30 min at room temperature and then quenched. Pepsin reactions were quenched by adding Tris base to a final concentration of 0.075 M. Trypsin reactions were quenched by adding excess soybean trypsin inhibitor. RP-HPLC was then run on samples using an Agilent 1260 HPLC equipped with a C-18 Poroshell 120B column. Sample were analyzed by a gradient method with a mobile phase of Solvent A (water with 0.1% TFA) and Solvent B (acetonitrile with 0.1% TFA). Solvent B was ramped up from 5%-45% of the mobile phase over a period of 10 minutes.

[3] = Resistance to reduction by DTT, RP-HPLC; type: physicochemical; settings: 10 mM DTT; HPLC vs non-reduced peptide
In short: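 Peptide (12.5 μg from a 2 mg/ml stock, or 0.015 mM final in PBS) was held 30 min at room temperature with or without 10 mM DTT. Reduced and non-reduced forms were compared by C-18 RP-HPLC using a 5–45% acetonitrile/0.1% TFA gradient over 10 min, with detection at 214 and 280 nm.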

[4] = Resistance to reduction by reduced glutathione (GSH), HPLC; type: physicochemical; settings: 10 mM reduced glutathione (GSH); HPLC vs non-reduced peptide
Experimental: This example describes stability of designed or engineered peptides under reducing conditions. Peptides that are designed or engineered to interact with one or more target proteins in the cell, such as proteins in the nucleus, are exposed to reducing conditions in the cytosolic compartment of cells. Thus, it is advantageous for peptides of this disclosure to display stability in reducing conditions. Stability of peptides of this disclosure was tested in 10 mM DTT and 10 mM GSH. GSH is a more physiologically relevant reducing agent for testing peptide stability in intracellular conditions. An example of a peptide-target protein interaction is a peptide binding to a TEAD protein.

TEAD protein = experiment: Binding of surface-displayed (SDGF) peptide to biotinylated target protein after reducing agent, flow cytometry; type: cell-based; settings: HEK-293 cells displaying peptide, 20 nM biotinylated target protein
Experimental: Designed or engineered peptides of this disclosure were also tested to evaluate if the peptides' binding activity to their target protein (e.g., TEAD protein) was affected by exposure to reducing conditions. HEK-293T suspension cells were transfected with a surface display GFP FasL(SDGF) vector comprising SEQ ID NO: 39 (SDGF-SEQ ID NO: 39) or SDGF vector comprising SEQ ID NO: 43 (SDGF-SEQ ID NO: 43) construct. Cultures were grown for two days, followed by incubation in 10 mM GSH or 10 mM DTT. Finally, cells were stained with biotinylated-target protein to evaluate the binding activity of a peptide to the target protein. FIG. 15 illustrates the stability of peptides of SEQ ID NO: 39 and SEQ ID NO: 43 after exposure to a reducing agent. Each peptide was expressed on a cell surface and tested for binding to a target protein after cells expressing SDGF-SEQ ID NO: 43 or SEQ ID NO: 39 were exposed to a reducing agent. FIG. 15A illustrates a flow cytometry plot showing binding of HEK-293 suspension cells transfected with SDGF-SEQ ID NO: 39 (GFP) incubated for 5 minutes in PBS, 10 mM DTT, or 10 mM reduced glutathione (GSH) before staining with 20 nM biotinylated target protein and 20 nM AF647-streptavidin. FIG. 15B illustrates a flow cytometry plot showing binding of HEK-293 suspension cells transfected with SDGF-SEQ ID NO: 43 (GFP) incubated for 5 minutes in PBS, 10 mM DTT, or 10 mM reduced glutathione (GSH) before staining with 20 nM biotinylated target protein and 20 nM AF647-streptavidin. FIG. 15C illustrates quantification of the AF647 mean fluorescence intensity (MFI) of cells falling within the “slice” gate shown in FIG. 15A and FIG. 15B. […] In other words, peptides of SEQ ID NO: 39 and SEQ ID NO: 43 were resistant to reduction by GSH.

[5] = SYPRO Orange melting assay; type: physicochemical; settings: heating from 20° C. to 95° C.
Experimental: (§2) Protein secondary structures were assessed using Circular Dichrosim (CD). CD spectra were measured with a Jasco J-720W spectropolarimeter using a 1.0 mm path length cell. Protein samples in 10 mM phosphate buffer (pH=7.4) were at 25-30 μM protein concentration. Samples were analyzed at wavelength ranges of […]. Data were expressed in terms of relative ellipticity [θ]; (mdeg). To determine thermal stability of proteins, samples were subjected to incremental increase in temperature at a ramp of 2° C./min from 20° C. to 95° C. Stability and protein unfolding were monitored at 220 and 215 for α-helix and β-sheet secondary structures, respectively. Data are expressed in terms of relative ellipticity [θ], reported in mdeg. For SEQ ID NO: 43 and its point mutant variants, no changes to the α-helix-dominated structure were observed upon heating up to 95° C. […] Additionally, protein melting temperature (Tm) determination was performed by monitoring protein unfolding using SYPRO Orange dye (Molecular Probes). In brief, 0.1 mg/mL protein sample in 20 μL total volume PBS buffer were mixed with 24, of 10× SYPRO Orange dye. Dye intercalation into the hydrophobic protein core following protein unfolding was assayed using the C1000 Touch Thermal Cycler with CFX96 Deep Well Real-Time System (BioRad). Samples were heated from 20° C. to 95° C. with stepwise increments of 0.5° C. per minute and a 5 sec hold step for every point, followed by fluorescence reading. Tm were calculated by analyzing the derivatives of Relative florescence Units (RFU). FIG. 17D illustrates this SYPRO Orange melting assay of Peptides.

[6] = Circular dichroism thermal stability, heating 20° C. to 95° C.; type: physicochemical; settings: 10 mM phosphate buffer pH 7.4; heated 20° C. to 95° C.
Experimental: as §2

pepsin [7] = target: T1, pepsin; experiment: Pepsin digestion resistance in simulated gastric fluid, RP-HPLC; type: in vitro ADME, porcine; design: purchased Sigma Aldrich P7012; settings: HPLC; for resistance to pepsin digestion (in words): 500 U/ml pepsin (50 U per reaction) in SGF, 30 minutes at 37.5° C.; for resistance to pepsin, Example 7 conditions (in words): 500 U pepsin (5000 U/ml) in SGF, 30 min at room temperature, with or without DTT
In short: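 Digestion resistance read by reversed-phase HPLC (C-18, 0.1% TFA, 5–45% acetonitrile over 10 min; 214/280 nm) after 12.5 μg peptide spent 30 min at 37.5 °C in pH 1.05 simulated gastric fluid, with or without 500 U/ml pepsin. Some samples quenched with Tris base and DTT.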

[8] = Resistance to elevated temperature, HPLC; type: physicochemical; settings: 100° C. for 1 hour; HPLC
In short: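 Peptides were incubated at room temperature, 70° C or 100° C for one hour in ddH2O; another protocol used 70° C, 75° C or 100° C for one hour in 0.5 mM PBS, then pelleting and analysis of the supernatant. Remaining peptide was measured by C-18 RP-HPLC, 5–45% acetonitrile/0.1% TFA over 10 min.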

GSQFTNVSCTTSRECWSVCQRLHNTSRGRCMNRRCRCYS [SEQ ID NO: 2]
resistance to trypsin digestion (in words) (trypsin): highly resistant
resistance in SPTD (SGF, pepsin, Tris, DTT) (in words) (pepsin [1]): resistant
stability in simulated gastric fluid / low pH (in words) [2]: remained intact
resistance to reduction by DTT (in words) [3]: remained intact; also recorded: highly resistant

GSPDEYIERAKECCKKGDIQCCLRYFEESGDPNVMLICLFCP [SEQ ID NO: 39]
resistance to GSH reducing conditions [4]: resistant
binding to target protein after DTT treatment (TEAD protein; 5 minutes in 10 mM DTT): partial loss in binding
binding to target protein after GSH treatment (TEAD protein; 5 minutes in 10 mM GSH): no loss in binding

PDEYIERAKECCKKGDIQCCLRYFEESGDPNVMLICLFCP [SEQ ID NO: 122]
resistance to GSH reducing conditions [4]: resistant

GSPDEYIERAKECCKKQDIQCCLRIFDESGDPNVMLICLFCW [SEQ ID NO: 44]
melting temperature (Tm) [5]: no melting temperature could be determined
CD secondary structure signature before (Pre) and after (Post) incubation at 95° C. [6]: similar; also recorded: identical
resistance to reduction by DTT (in words) [3]: partially resistant

GSPDEYIERAKECCKKQDIQCCLRIFDESKDPNVMLICLFCP [SEQ ID NO: 45]
resistance to pepsin digestion (in words) (pepsin [7]): resistant
melting temperature (Tm) [5]: no melting temperature could be determined
CD secondary structure signature before (Pre) and after (Post) incubation at 95° C. [6]: identical; also recorded: similar
resistance to incubation at 100° C. (in words) [8]: resistant
resistance to reduction by DTT (in words) [3]: partially resistant

CC[C@H](C)[C@@H]1NC(=O)[C@@H]2CSSC[C@H](NC(=O)[C@H](CCCCN)NC(=O)[C@@H](NC(=O)[C@H](CC(N)=O)NC(=O)[C@@H](NC(=O)[C@@H]3CCCN3C(=O)[C@@H](NC(=O)CNC(=O)[C@H](CO)NC(=O)CN)C(C)C)[C@@H](C)CC)C(C)C)C(=O)N[C@@H](CCCNC(=N)N)C(=O)NCC(=O)N[C@@H](CO)C(=O)N[C@@H](CCCNC(=N)N)C(=O)N[C@@H](CC(=O)O)C(=O)N[C@H]3CSSC[C@H](NC(=O)[C@H](CCCCN)NC(=O)[C@H](CO)NC(=O)[C@H](CC(N)=O)NC1=O)C(=O)N[C@@H](Cc1c[nH]cn1)C(=O)N[C@H](C(=O)N[C@H](C(=O)N1CCC[C@H]1C(=O)O)[C@@H](C)O)CSSC[C@H](NC(=O)[C@@H]1CCCN1C(=O)[C@H](CC(=O)O)NC(=O)[C@H](CC(C)C)NC3=O)C(=O)N[C@@H](CCCCN)C(=O)N[C@@H](CCCCN)C(=O)N[C@@H](C)C(=O)NCC(=O)N[C@@H](CCSC)C(=O)N[C@@H](CCCNC(=N)N)C(=O)N[C@@H](Cc1ccccc1)C(=O)NCC(=O)N[C@@H](CCCCN)C(=O)N2 [SEQ ID NO: 27] (H-GSGVPINVKCRGSRDCLDPCKKAGMRFGKCINSKCHCTP-OH; disulfide 10-30, 16-35, 20-37)
resistance to trypsin, Example 7 conditions (in words) (trypsin): remained intact
resistance to trypsin digestion (in words) (trypsin): highly resistant; also recorded: fully resistant
resistance in SPTD (SGF, pepsin, Tris, DTT) (in words) (pepsin [1]): highly resistant
resistance to pepsin, Example 7 conditions (in words) (pepsin [7]): remained intact
resistance to pepsin digestion (in words) (pepsin [7]): highly resistant
stability in simulated gastric fluid / low pH (in words) [2]: highly resistant; also recorded: remained intact

GSGVPINVRSRGSRDSLDPSRRAGMRFGRSINSRSHSTP [SEQ ID NO: 177, reference compound]
resistance to trypsin, Example 7 conditions (in words) (trypsin): degraded
resistance to pepsin, Example 7 conditions (in words) (pepsin [7]): degraded
stability in simulated gastric fluid / low pH (in words) [2]: stable
